We go through 13 molecules from patent US20250340659A1 (PETMEDIX, published 2025).

Numbering of substitutions follows the chain as printed.

Assay [1] concerns the target T1, canine OX40L, full length membrane form, expressed on HEK293 cells (canine).
T1 construct: also called OX40L expressing HEK; HEK OX40L cells
T1 chain: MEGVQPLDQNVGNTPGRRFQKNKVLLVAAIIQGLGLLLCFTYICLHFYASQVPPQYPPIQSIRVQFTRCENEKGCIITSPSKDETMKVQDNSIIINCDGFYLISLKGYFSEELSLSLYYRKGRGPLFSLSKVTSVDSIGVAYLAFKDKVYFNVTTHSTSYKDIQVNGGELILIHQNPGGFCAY
The assay is described as follows: flow cytometry. An outline of the steps:
(§1)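 CHO supernatants at 1, 5 or 10 μg/ml in PBS/3% FBS incubated 30′ on ice with cells surface-expressing canine OX40L. Bound antibody detected with fluorescent anti-canine Fc secondary (1:1000, 30 min, dark) and measured by flow cytometry, with parental WT HEK signal subtracted where stated.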

Assay [2] deals with T2, recombinant canine OX40L ECD-TNCc-HIS protein (canine).
T2 construct: also called Trimeric OX40L probe (HIS tag); trimeric canine OX40L
T2 chain: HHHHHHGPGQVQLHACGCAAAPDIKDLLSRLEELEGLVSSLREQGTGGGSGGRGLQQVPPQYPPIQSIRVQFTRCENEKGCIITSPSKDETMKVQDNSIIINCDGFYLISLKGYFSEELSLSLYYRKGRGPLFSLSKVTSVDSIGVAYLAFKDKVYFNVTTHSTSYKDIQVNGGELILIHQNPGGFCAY
Briefly: SPR Koff (kd1). An outline of the steps: (§2)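 Purified antigen amine-coupled at low density to a CM5 chip; candidate antibodies injected as analyte over a concentration range. Kinetic curves fitted with a bivalent analyte model to give functional affinity and dissociation rates.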

For assay [3], the target named is T2, recombinant canine OX40L ECD-TNCc-HIS …. The assay is described as follows: SPR Koff (kd2). A digest of the protocol:
as §2

Assay [4] deals with T1, canine OX40L, full length membrane …. The assay is described as follows: cell-based or functional assay.
Assay [5] deals with T2, recombinant canine OX40L ECD-TNCc-HIS …. Briefly: SPR KD1, bivalent analyte model. A digest of the protocol: as §2
Assay [6] addresses T1, canine OX40L, full length membrane …. Briefly: flow cytometry, OX40L HEK minus WT HEK. An outline of the steps: as §1
A general note: A flow cytometer gives signals particle by particle.

B1: PMX060 (antibody, V domains shown)
VH: EVQLVESGGDLMKPGGSLRLSCVASGFTFSSFPMSWVRQAPGKGLQWVAYIHSGGSSTSYADAVKGRFTISRDNAKNTLYLQMNSLRAEDTAIYYCARTFPTVAADNWFYYWGQGTLVTVSS
VL: SYVLTQLPSKNVTLKQAAHITCGGDNIGSKSVHWYQQKLGQAPVLIIYYDSSRPTGIPERFSGANSGNTATLTISGALAEDEADYYCQVWDSSAKWVFGEGTQLTVL
notes: also called PMX60
One may read the koff as the first-order rate constant of dissociation. Regarding B1, the “GEO mean OX40L expressing HEK” value in assay [1] was determined as 3.1e+06. Further, in assay [2], the koff stood at 0.00933 s⁻¹. The koff in assay [3] worked out at 0.000925 s⁻¹. Further, in assay [4], the “% Signal Inhibition Average” value was 66.1%, the “% Signal Inhibition Rep1” value was 58.9%, the “% Signal Inhibition Rep2” value came out at 68.4% and the “% Signal Inhibition Rep3” value amounted to 71.1%. Further, the Kd in assay [5] was 70.9 nM. Further, in assay [6], the GEO mean difference is 3.07e+06.

B2: PMX061 (antibody, V domains shown)
VH: B1 VH with M12V, H52N, A63V, E89D, I93V, A105T
VL: B1 VL
notes: also called PMX61
In the case of B2, the “GEO mean OX40L expressing HEK” value in assay [1] is 3.29e+06. The koff in assay [2] was determined as 0.00746 s⁻¹. Further, in assay [3], the koff came to 0.000729 s⁻¹. Besides, in assay [4], the “% Signal Inhibition Average” value is 56.1%, the “% Signal Inhibition Rep1” value turned out to be 51%, the “% Signal Inhibition Rep2” value amounted to 61.6% and the “% Signal Inhibition Rep3” value turned out to be 55.7%. For the same molecule, in assay [5], the Kd is 89.6 nM. The GEO mean difference in assay [6] came out at 3.26e+06.

B3: PMX058 (antibody, V domains shown)
VH: EVQLVESGGDLVKPEGSLRLSCVVSDFTFGSYGMSWVRQAPGKGLQWVAYISSDGRSTSYTDAVKGRFTISRDNAKNTLHLQMNSLRTEDTAVYYCAKLGRGFAFGYWGQGTLVTVSS
VL: SYVLTQLPSKNVTLKQPAHITCGGDNIGSKSVHWYQQKLGQAPVLIIYYDSNRPTGIPERFSGANSGNTATLTISGALAEDEADYYCQVWDSSASVFGGGTHLTVL
notes: also called PMX58
B3: in assay [1], the “GEO mean OX40L expressing HEK” value stood at 3.34e+06. In addition, the koff in assay [2] was 0.0144 s⁻¹. In addition, the koff in assay [3] came to 0.323 s⁻¹. Moreover, in assay [4], the “% Signal Inhibition Average” value worked out at 29.1%, the “% Signal Inhibition Rep1” value is 12.4%, the “% Signal Inhibition Rep2” value was determined as 35.3% and the “% Signal Inhibition Rep3” value was 39.5%. In addition, the Kd in assay [5] was found to be 8.46 nM. Also, in assay [6], the GEO mean difference was determined as 3.31e+06.

B4: PMX059 (antibody, V domains shown)
VH: EVHLVESGGDLVKPEGSLRLSCVVSGFTFSNYVMNWVRQAPGKGLQWVAFISGDGRSTTYTDAVKSRFTISRDNAKNTLYLQMSSLRTEDTAIYFCAKEKYSSGWSFEYWGQGTLVTVSS
VL: B3 VL with N52S
notes: also called PMX59
B4: the “GEO mean OX40L expressing HEK” value in assay [1] was 3.14e+06. Moreover, the koff in assay [2] is 0.00737 s⁻¹. In assay [3], the koff was 0.00737 s⁻¹. Moreover, in assay [4], the “% Signal Inhibition Average” value came out at 57.8%, the “% Signal Inhibition Rep1” value came to 51.1%, the “% Signal Inhibition Rep2” value amounted to 64.3% and the “% Signal Inhibition Rep3” value was 58%. Also, in assay [5], the Kd came out at 10 nM. In assay [6], this molecule returned a GEO mean difference of 3.11e+06.

B5: PMX036 (antibody, V domains shown)
VH: EVQLVESGGDLVKPGGSLRLSCVASGFTFSSYHMSWVRQAPGKGLQWVAYITSGGRTTSYADAVKGRFTISRDNAKNTLYLQMNSLRAEDTAVYYCASDLVLVLGGADYWGQGTLVTVSS
VL: SYELTQPPSVNVTLRETAHITCGGDSIGRKYVQWIQQNPGQAPVVIIYKDTNRPTGIPERFSGANSGNTATLTISGALAEDEADYYCQVGDSGTKAVFGGGTHLTVL
notes: also called PMX36
With B5, the “GEO mean OX40L expressing HEK” value in assay [1] was found to be 1.31e+06. The off-rate constant (koff) in assay [2] amounted to 0.00166 s⁻¹. Moreover, the koff in assay [3] is 0.0522 s⁻¹. In addition, in assay [4], the “% Signal Inhibition Average” value was determined as 77.4%, the “% Signal Inhibition Rep1” value turned out to be 87.6%, the “% Signal Inhibition Rep2” value is 79.1% and the “% Signal Inhibition Rep3” value was determined as 65.5%. Besides, the Kd in assay [5] was 21.6 nM. The molecule further had a GEO mean difference in assay [6] of 1.28e+06.

B6: PMX064 (antibody, V domains shown)
VH: B5 VH with R56I, V103I
VL: B5 VL with R15S, T51S
notes: also called PMX64
In the case of B6, the “GEO mean OX40L expressing HEK” value in assay [1] amounted to 3.45e+06. Besides, in assay [2], the koff worked out at 0.0352 s⁻¹. The koff in assay [3] is 0.000921 s⁻¹. Besides, in assay [4], the “% Signal Inhibition Average” value worked out at 91.1%, the “% Signal Inhibition Rep1” value was found to be 88.9%, the “% Signal Inhibition Rep2” value turned out to be 94.8% and the “% Signal Inhibition Rep3” value came out at 89.7%. In addition, the Kd in assay [5] turned out to be 145 nM. In assay [6], this molecule yielded a GEO mean difference of 3.42e+06.

B7: PMX033 (antibody, V domains shown)
VH: B5 VH with N84K, D108E
VL: B5 VL with T51S, T94S
notes: also called PMX33
Regarding B7, the “GEO mean OX40L expressing HEK” value in assay [1] came to 1.46e+06. Also, the koff in assay [2] worked out at 0.0103 s⁻¹. Also, the koff in assay [3] amounted to 0.00101 s⁻¹. In assay [4], the “% Signal Inhibition Average” value worked out at 60.3%, the “% Signal Inhibition Rep1” value amounted to 55.8%, the “% Signal Inhibition Rep2” value stood at 69.8% and the “% Signal Inhibition Rep3” value came to 55.4%. In addition, the Kd in assay [5] amounted to 36.4 nM. The molecule further gave a GEO mean difference in assay [6] of 1.43e+06.

B8: PMX038 (antibody, V domains shown)
VH: B5 VH with N84K, S98R, D108E
VL: B5 VL with T51S, T94S
notes: also called PMX38
As for B8, the “GEO mean OX40L expressing HEK” value in assay [1] turned out to be 1.56e+06. The koff in assay [2] was found to be 0.0105 s⁻¹. Moreover, the off-rate constant (koff) in assay [3] is 0.000796 s⁻¹. Further, in assay [4], the “% Signal Inhibition Average” value came out at 68.5%, the “% Signal Inhibition Rep1” value was 79.8%, the “% Signal Inhibition Rep2” value turned out to be 75% and the “% Signal Inhibition Rep3” value is 50.8%. Also, the Kd in assay [5] amounted to 100 nM. The GEO mean difference in assay [6] was determined as 1.53e+06.

B9: PMX034 (antibody, V domains shown)
VH: B5 VH with S31N, T52V, R56S, T57S, S59T, N84T, V103L, L104V
VL: B5 VL with R29S, T51S
notes: also called PMX34
Turning to B9, in assay [1], the “GEO mean OX40L expressing HEK” value came to 1.39e+06. In assay [2], the koff came out at 0.135 s⁻¹. For the same molecule, the koff in assay [3] stood at 0.000252 s⁻¹. For the same molecule, in assay [4], the “% Signal Inhibition Average” value is 64.2%, the “% Signal Inhibition Rep1” value worked out at 76.4%, the “% Signal Inhibition Rep2” value came out at 64.7% and the “% Signal Inhibition Rep3” value is 51.6%. In assay [5], the Kd came out at 7230 nM. In assay [6], the GEO mean difference stood at 1.36e+06.

B10: PMX042 (antibody, V domains shown)
VH: B5 VH with R56S, N84D, E89D, V103L
VL: B5 VL with N38H, T51Y
notes: also called PMX42
With B10, the “GEO mean OX40L expressing HEK” value in assay [1] is 1.51e+06. Besides, the koff in assay [2] turned out to be 0.0292 s⁻¹. The koff in assay [3] was 0.00056 s⁻¹. Besides, in assay [4], the “% Signal Inhibition Average” value worked out at 78.8%, the “% Signal Inhibition Rep1” value was 77.8%, the “% Signal Inhibition Rep2” value is 87.5% and the “% Signal Inhibition Rep3” value turned out to be 71%. The Kd in assay [5] was determined as 274 nM. The GEO mean difference in assay [6] worked out at 1.48e+06.

B11: PMX032 (antibody, V domains shown)
VH: B5 VH with T69I, V103I
VL: B5 VL with T51N, T94S
notes: also called PMX32
In the case of B11, in assay [1], the “GEO mean OX40L expressing HEK” value was 1.45e+06. The koff in assay [2] worked out at 0.00586 s⁻¹. Besides, the koff in assay [3] is 1.71e-05 s⁻¹. For the same molecule, in assay [4], the “% Signal Inhibition Average” value was determined as 70%, the “% Signal Inhibition Rep1” value is 76.8%, the “% Signal Inhibition Rep2” value stood at 57.4% and the “% Signal Inhibition Rep3” value was 75.7%. Besides, the Kd in assay [5] turned out to be 7.2 nM. Also, the GEO mean difference in assay [6] was 1.42e+06.

B12: PMX045 (antibody, V domains shown)
VH: B5 VH with S35T, R56I, N84S, V93M, S98R, V103L
VL: B5 VL with T51S
notes: also called PMX45
On to B12, for which the “GEO mean OX40L expressing HEK” value in assay [1] stood at 1.47e+06. For the same molecule, the koff in assay [2] was determined as 0.00484 s⁻¹. Besides, the koff in assay [3] turned out to be 0.000554 s⁻¹. For the same molecule, in assay [4], the “% Signal Inhibition Average” value was determined as 75.9%, the “% Signal Inhibition Rep1” value is 79.9%, the “% Signal Inhibition Rep2” value amounted to 81.7% and the “% Signal Inhibition Rep3” value came to 66.2%. In addition, in assay [5], the Kd amounted to 10.4 nM. The GEO mean difference in assay [6] turned out to be 1.44e+06.

B13: PMX028 (antibody, V domains shown)
VH: B5 VH with L4M, S31D, R56S, T57S, L104V, A107G, D108V
VL: B5 VL with R29S, T51S, G100E, H103Q
notes: also called PMX28
As to B13, in assay [1], the “GEO mean OX40L expressing HEK” value is 1.05e+06. Further, the koff in assay [2] came to 0.00935 s⁻¹. The koff in assay [3] stood at 0.000627 s⁻¹. In assay [4], the “% Signal Inhibition Average” value amounted to 66.4%, the “% Signal Inhibition Rep1” value was 61.7%, the “% Signal Inhibition Rep2” value was 75.4% and the “% Signal Inhibition Rep3” value came to 62.1%. The Kd in assay [5] was found to be 17 nM. Further, the GEO mean difference in assay [6] was determined as 1.02e+06.
